# Experimental data as given in US20260001928A1 (CORTERIA PHARMACEUTICALS, priority 2022, published 2026).
# *1 amine or outer side, *2 acyl side, *3 side chain or, on linkers, in order; H or OH if unused. Where no end group is shown, it is not given here. Side-chain parts run from the residue outwards. [ ]: non-standard residue; d: D form. The star is where a group is joined. C18 diacid = O=C(O)CCCCCCCCCCCCCCCCC(=O)*; C16 diacid = O=C(O)CCCCCCCCCCCCCCC(=O)*; γGlu = O=C(O)[C@H](CCC(=O)[*:2])N[*:1]; NMeI = CC[C@H](C)[C@H](NC)C(=O)O; αMeL = CC(C)C[C@](C)(N)C(=O)O; Pentanoyl = CCCCC(=O)*; AEEA = NCCOCCOCC(=O)O; Aib = CC(C)(N)C(=O)O
# T1: CRF1R receptor (UniProt P34998 24-415, limits assumed)
# T1 sequence (looked up): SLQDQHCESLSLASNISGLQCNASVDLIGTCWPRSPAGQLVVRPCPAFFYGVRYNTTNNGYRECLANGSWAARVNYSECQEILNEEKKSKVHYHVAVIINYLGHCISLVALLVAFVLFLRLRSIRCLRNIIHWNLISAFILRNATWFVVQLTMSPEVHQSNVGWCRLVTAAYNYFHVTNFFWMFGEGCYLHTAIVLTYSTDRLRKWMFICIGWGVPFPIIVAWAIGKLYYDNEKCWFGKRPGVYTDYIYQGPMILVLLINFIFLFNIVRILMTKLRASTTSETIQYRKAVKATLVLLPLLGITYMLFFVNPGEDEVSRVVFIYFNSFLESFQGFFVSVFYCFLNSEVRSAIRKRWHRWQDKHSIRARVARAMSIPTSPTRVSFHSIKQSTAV
# B1: SEQ ID NO 103 (peptide)
# peptide: Ac-IVLSLD[dV]PIKLK([AEEA-AEEA-γGlu-C18 diacid])KILLEQEKQKKQREQAETNVQILAQV-NH2
# SMILES: CC[C@H](C)[C@H](NC(C)=O)C(=O)N[C@H](C(=O)N[C@@H](CC(C)C)C(=O)N[C@@H](CO)C(=O)N[C@@H](CC(C)C)C(=O)N[C@@H](CC(=O)O)C(=O)N[C@@H](C(=O)N1CCC[C@H]1C(=O)N[C@H](C(=O)N[C@@H](CCCCN)C(=O)N[C@@H](CC(C)C)C(=O)N[C@@H](CCCCNC(=O)COCCOCCNC(=O)COCCOCCNC(=O)CC[C@H](NC(=O)CCCCCCCCCCCCCCCCC(=O)O)C(=O)O)C(=O)N[C@@H](CCCCN)C(=O)N[C@H](C(=O)N[C@@H](CC(C)C)C(=O)N[C@@H](CC(C)C)C(=O)N[C@@H](CCC(=O)O)C(=O)N[C@@H](CCC(N)=O)C(=O)N[C@@H](CCC(=O)O)C(=O)N[C@@H](CCCCN)C(=O)N[C@@H](CCC(N)=O)C(=O)N[C@@H](CCCCN)C(=O)N[C@@H](CCCCN)C(=O)N[C@@H](CCC(N)=O)C(=O)N[C@@H](CCCNC(=N)N)C(=O)N[C@@H](CCC(=O)O)C(=O)N[C@@H](CCC(N)=O)C(=O)N[C@@H](C)C(=O)N[C@@H](CCC(=O)O)C(=O)N[C@H](C(=O)N[C@@H](CC(N)=O)C(=O)N[C@H](C(=O)N[C@@H](CCC(N)=O)C(=O)N[C@H](C(=O)N[C@@H](CC(C)C)C(=O)N[C@@H](C)C(=O)N[C@@H](CCC(N)=O)C(=O)N[C@H](C(N)=O)C(C)C)[C@@H](C)CC)C(C)C)[C@@H](C)O)[C@@H](C)CC)[C@@H](C)CC)C(C)C)C(C)C
# B2: SEQ ID NO 27 (peptide)
# peptide: Ac-IVLSLD[dV]PIKLK([AEEA-AEEA-γGlu-γGlu-C18 diacid])Q[Aib]LLKQERQKKQREQAEKNVQILEQV-NH2
# SMILES: CC[C@H](C)[C@H](NC(C)=O)C(=O)N[C@H](C(=O)N[C@@H](CC(C)C)C(=O)N[C@@H](CO)C(=O)N[C@@H](CC(C)C)C(=O)N[C@@H](CC(=O)O)C(=O)N[C@@H](C(=O)N1CCC[C@H]1C(=O)N[C@H](C(=O)N[C@@H](CCCCN)C(=O)N[C@@H](CC(C)C)C(=O)N[C@@H](CCCCNC(=O)COCCOCCNC(=O)COCCOCCNC(=O)CC[C@H](NC(=O)CC[C@H](NC(=O)CCCCCCCCCCCCCCCCC(=O)O)C(=O)O)C(=O)O)C(=O)N[C@@H](CCC(N)=O)C(=O)NC(C)(C)C(=O)N[C@@H](CC(C)C)C(=O)N[C@@H](CC(C)C)C(=O)N[C@@H](CCCCN)C(=O)N[C@@H](CCC(N)=O)C(=O)N[C@@H](CCC(=O)O)C(=O)N[C@@H](CCCNC(=N)N)C(=O)N[C@@H](CCC(N)=O)C(=O)N[C@@H](CCCCN)C(=O)N[C@@H](CCCCN)C(=O)N[C@@H](CCC(N)=O)C(=O)N[C@@H](CCCNC(=N)N)C(=O)N[C@@H](CCC(=O)O)C(=O)N[C@@H](CCC(N)=O)C(=O)N[C@@H](C)C(=O)N[C@@H](CCC(=O)O)C(=O)N[C@@H](CCCCN)C(=O)N[C@@H](CC(N)=O)C(=O)N[C@H](C(=O)N[C@@H](CCC(N)=O)C(=O)N[C@H](C(=O)N[C@@H](CC(C)C)C(=O)N[C@@H](CCC(=O)O)C(=O)N[C@@H](CCC(N)=O)C(=O)N[C@H](C(N)=O)C(C)C)[C@@H](C)CC)C(C)C)[C@@H](C)CC)C(C)C)C(C)C
# B3: SEQ ID NO 28 (peptide)
# peptide: [NMeI]VLSLD[dV]PIKLK([AEEA-AEEA-γGlu-γGlu-C18 diacid])Q[Aib]LLKQERQKKQREQAEKNVQILEQV-NH2
# modifications: N-terminus assumed
# SMILES: CC[C@H](C)[C@H](NC)C(=O)N[C@H](C(=O)N[C@@H](CC(C)C)C(=O)N[C@@H](CO)C(=O)N[C@@H](CC(C)C)C(=O)N[C@@H](CC(=O)O)C(=O)N[C@@H](C(=O)N1CCC[C@H]1C(=O)N[C@H](C(=O)N[C@@H](CCCCN)C(=O)N[C@@H](CC(C)C)C(=O)N[C@@H](CCCCNC(=O)COCCOCCNC(=O)COCCOCCNC(=O)CC[C@H](NC(=O)CC[C@H](NC(=O)CCCCCCCCCCCCCCCCC(=O)O)C(=O)O)C(=O)O)C(=O)N[C@@H](CCC(N)=O)C(=O)NC(C)(C)C(=O)N[C@@H](CC(C)C)C(=O)N[C@@H](CC(C)C)C(=O)N[C@@H](CCCCN)C(=O)N[C@@H](CCC(N)=O)C(=O)N[C@@H](CCC(=O)O)C(=O)N[C@@H](CCCNC(=N)N)C(=O)N[C@@H](CCC(N)=O)C(=O)N[C@@H](CCCCN)C(=O)N[C@@H](CCCCN)C(=O)N[C@@H](CCC(N)=O)C(=O)N[C@@H](CCCNC(=N)N)C(=O)N[C@@H](CCC(=O)O)C(=O)N[C@@H](CCC(N)=O)C(=O)N[C@@H](C)C(=O)N[C@@H](CCC(=O)O)C(=O)N[C@@H](CCCCN)C(=O)N[C@@H](CC(N)=O)C(=O)N[C@H](C(=O)N[C@@H](CCC(N)=O)C(=O)N[C@H](C(=O)N[C@@H](CC(C)C)C(=O)N[C@@H](CCC(=O)O)C(=O)N[C@@H](CCC(N)=O)C(=O)N[C@H](C(N)=O)C(C)C)[C@@H](C)CC)C(C)C)[C@@H](C)CC)C(C)C)C(C)C
# B4: SEQ ID NO 48 (peptide)
# peptide: Ac-IVLSLD[dV]PIKLK([γGlu-C16 diacid])KILLEQEKQKKQREQAETNVQILAQV-NH2
# SMILES: CC[C@H](C)[C@H](NC(C)=O)C(=O)N[C@H](C(=O)N[C@@H](CC(C)C)C(=O)N[C@@H](CO)C(=O)N[C@@H](CC(C)C)C(=O)N[C@@H](CC(=O)O)C(=O)N[C@@H](C(=O)N1CCC[C@H]1C(=O)N[C@H](C(=O)N[C@@H](CCCCN)C(=O)N[C@@H](CC(C)C)C(=O)N[C@@H](CCCCNC(=O)CC[C@H](NC(=O)CCCCCCCCCCCCCCC(=O)O)C(=O)O)C(=O)N[C@@H](CCCCN)C(=O)N[C@H](C(=O)N[C@@H](CC(C)C)C(=O)N[C@@H](CC(C)C)C(=O)N[C@@H](CCC(=O)O)C(=O)N[C@@H](CCC(N)=O)C(=O)N[C@@H](CCC(=O)O)C(=O)N[C@@H](CCCCN)C(=O)N[C@@H](CCC(N)=O)C(=O)N[C@@H](CCCCN)C(=O)N[C@@H](CCCCN)C(=O)N[C@@H](CCC(N)=O)C(=O)N[C@@H](CCCNC(=N)N)C(=O)N[C@@H](CCC(=O)O)C(=O)N[C@@H](CCC(N)=O)C(=O)N[C@@H](C)C(=O)N[C@@H](CCC(=O)O)C(=O)N[C@H](C(=O)N[C@@H](CC(N)=O)C(=O)N[C@H](C(=O)N[C@@H](CCC(N)=O)C(=O)N[C@H](C(=O)N[C@@H](CC(C)C)C(=O)N[C@@H](C)C(=O)N[C@@H](CCC(N)=O)C(=O)N[C@H](C(N)=O)C(C)C)[C@@H](C)CC)C(C)C)[C@@H](C)O)[C@@H](C)CC)[C@@H](C)CC)C(C)C)C(C)C
# B5: SEQ ID NO 111 (peptide)
# peptide: Ac-IVLSLD[dV]PIK[αMeL]K([AEEA-AEEA-γGlu-C18 diacid])KILLEQEKQKKQREQAETNVQILAQV-NH2
# SMILES: CC[C@H](C)[C@H](NC(C)=O)C(=O)N[C@H](C(=O)N[C@@H](CC(C)C)C(=O)N[C@@H](CO)C(=O)N[C@@H](CC(C)C)C(=O)N[C@@H](CC(=O)O)C(=O)N[C@@H](C(=O)N1CCC[C@H]1C(=O)N[C@H](C(=O)N[C@@H](CCCCN)C(=O)N[C@@](C)(CC(C)C)C(=O)N[C@@H](CCCCNC(=O)COCCOCCNC(=O)COCCOCCNC(=O)CC[C@H](NC(=O)CCCCCCCCCCCCCCCCC(=O)O)C(=O)O)C(=O)N[C@@H](CCCCN)C(=O)N[C@H](C(=O)N[C@@H](CC(C)C)C(=O)N[C@@H](CC(C)C)C(=O)N[C@@H](CCC(=O)O)C(=O)N[C@@H](CCC(N)=O)C(=O)N[C@@H](CCC(=O)O)C(=O)N[C@@H](CCCCN)C(=O)N[C@@H](CCC(N)=O)C(=O)N[C@@H](CCCCN)C(=O)N[C@@H](CCCCN)C(=O)N[C@@H](CCC(N)=O)C(=O)N[C@@H](CCCNC(=N)N)C(=O)N[C@@H](CCC(=O)O)C(=O)N[C@@H](CCC(N)=O)C(=O)N[C@@H](C)C(=O)N[C@@H](CCC(=O)O)C(=O)N[C@H](C(=O)N[C@@H](CC(N)=O)C(=O)N[C@H](C(=O)N[C@@H](CCC(N)=O)C(=O)N[C@H](C(=O)N[C@@H](CC(C)C)C(=O)N[C@@H](C)C(=O)N[C@@H](CCC(N)=O)C(=O)N[C@H](C(N)=O)C(C)C)[C@@H](C)CC)C(C)C)[C@@H](C)O)[C@@H](C)CC)[C@@H](C)CC)C(C)C)C(C)C
# B6: SEQ ID NO 37 (peptide)
# peptide: Pentanoyl-VLSLD[dV]PIKLK([γGlu-C16 diacid])KILLEQEKQKKQREQAETNKQILAQV-NH2
# SMILES: CCCCC(=O)N[C@H](C(=O)N[C@@H](CC(C)C)C(=O)N[C@@H](CO)C(=O)N[C@@H](CC(C)C)C(=O)N[C@@H](CC(=O)O)C(=O)N[C@@H](C(=O)N1CCC[C@H]1C(=O)N[C@H](C(=O)N[C@@H](CCCCN)C(=O)N[C@@H](CC(C)C)C(=O)N[C@@H](CCCCNC(=O)CC[C@H](NC(=O)CCCCCCCCCCCCCCC(=O)O)C(=O)O)C(=O)N[C@@H](CCCCN)C(=O)N[C@H](C(=O)N[C@@H](CC(C)C)C(=O)N[C@@H](CC(C)C)C(=O)N[C@@H](CCC(=O)O)C(=O)N[C@@H](CCC(N)=O)C(=O)N[C@@H](CCC(=O)O)C(=O)N[C@@H](CCCCN)C(=O)N[C@@H](CCC(N)=O)C(=O)N[C@@H](CCCCN)C(=O)N[C@@H](CCCCN)C(=O)N[C@@H](CCC(N)=O)C(=O)N[C@@H](CCCNC(=N)N)C(=O)N[C@@H](CCC(=O)O)C(=O)N[C@@H](CCC(N)=O)C(=O)N[C@@H](C)C(=O)N[C@@H](CCC(=O)O)C(=O)N[C@H](C(=O)N[C@@H](CC(N)=O)C(=O)N[C@@H](CCCCN)C(=O)N[C@@H](CCC(N)=O)C(=O)N[C@H](C(=O)N[C@@H](CC(C)C)C(=O)N[C@@H](C)C(=O)N[C@@H](CCC(N)=O)C(=O)N[C@H](C(N)=O)C(C)C)[C@@H](C)CC)[C@@H](C)O)[C@@H](C)CC)[C@@H](C)CC)C(C)C)C(C)C
# Molecular target: human corticotropin-releasing factor 2a (CRF2a receptor) (human), Q13324
# Assay: cell-based or functional assay
# Chain of human corticotropin-releasing factor 2a (CRF2a receptor) (human), Q13324 (Q13324 20-411): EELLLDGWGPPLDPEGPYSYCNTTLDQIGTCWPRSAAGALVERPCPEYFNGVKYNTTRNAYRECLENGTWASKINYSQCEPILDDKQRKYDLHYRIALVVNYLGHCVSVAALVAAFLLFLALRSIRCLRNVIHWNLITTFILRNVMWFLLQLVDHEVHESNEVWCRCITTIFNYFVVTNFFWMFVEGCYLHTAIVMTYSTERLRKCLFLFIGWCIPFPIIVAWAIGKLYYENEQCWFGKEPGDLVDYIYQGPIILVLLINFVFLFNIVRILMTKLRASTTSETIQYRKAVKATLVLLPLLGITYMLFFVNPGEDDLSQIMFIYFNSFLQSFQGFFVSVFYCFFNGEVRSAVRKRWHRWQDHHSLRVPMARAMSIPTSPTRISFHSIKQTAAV
row,EC50 [nM] (cAMP),Binder
1,3.09,B1
2,16.9,B2
3,2.2,B3
4,1.35,B4
5,2.58,B5
6,0.13,B6

# Molecular target: T1, CRF1R receptor
# Assay: cell-based or functional assay
Emax (% I) [%],EC50 [nM],Binder
3,–,B1
7,> 250,B2
6,> 250,B3
4,–,B4
-3,–,B5
22,–,B6
